US20070269898A1, “Amino Acid Sequences Essential to Neuron Specific Gene Expression” (YOKOHAMA CITY UNIVERSITY, priority 2004, published 2007)
Where no end group is shown, it is not given here.

T1: mSin3B PAH1 domain (Mus musculus, UniProt Q62141)
T1 construct: Gly-Ser-His-Met (vector-derived N-terminal residues; general statement only, not tied to the sample used) (N); made in house
T1 sequence (Q62141 28-107): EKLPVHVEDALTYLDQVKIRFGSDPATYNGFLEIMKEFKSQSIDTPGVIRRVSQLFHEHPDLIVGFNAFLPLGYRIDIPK

T2: PAH1 domain of mSin3B (a.a. 28-107) (mouse, UniProt O75182 35-114 (human entry))
T2 construct: Expressed in E. coli from pET-28a (NdeI-BamHI) and the His-tag was cut off with thrombin; Used 15N-labeled (or 13C/15N-labeled) in NMR; Stated molecular weight 9585; also called mSin3B PAH1 domain; mSin3B PAH1
T2 sequence: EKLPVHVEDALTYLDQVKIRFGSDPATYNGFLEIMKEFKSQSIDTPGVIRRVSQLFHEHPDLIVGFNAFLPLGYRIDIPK


Key:
mSin3B PAH1 domain = biological target: T1, mSin3B PAH1 domain; assay: 1H-15N HSQC interaction / titration experiment with 15N-labeled mSin3B PAH1 domain; format: binding; conditions: for Spectrum (1H-15N HSQC of 15N-mSin3B PAH1 after adding the peptide: complex or single peptide): peptide added to aqueous solution of 15N-labeled mSin3B PAH1
Experimental: Interaction candidate regions of NRSF/REST (a.a. 43-83, 39-55, 38-57, 64-80 and 68-83) were individually added to an aqueous solution of ^15N-labeled mSin3B PAH1 for measuring ^1H—^15N HSQC to thereby determine a region necessary for the interaction. In order to examine binding ratios, NRSF/REST (a.a. 42-56) at varied concentrations was added to ^15N-labeled mSin3B PAH1 domain in phosphate buffer (pH 6.6), followed by observation of signal changes by ^1H—^15N HSQC. […] Further, in order to carry out quantitative determination of concentrations with UV, a residue having an aromatic ring (W) was also added to the peptide. In a similar manner, the interaction between ^15N-labeled mSin3B PAH1 domain and N—CoR (a.a. 1829-1847) was observed by ^1H-^15N HSQC. For all of the NMR measurement, Bruker Advance 700 was used.
^1H—^15N HSQC spectra were measured when NRSF/REST (a.a. 42-56) was added to 0.1 mM ^15N-labeled mSin3B PAH1 domain at a molar ratio of 1:0, 1:0.5, 1:1 or 1:2. As the concentration of NRSF/REST increased, signals from the single peptide mSin3B disappeared and new signals derived from the mSin3B in complex began to appear. […] No difference was recognized between mSin3B PAH1:NRSF/REST ratios of 1:1 and 1:2. Therefore, it was shown that mSin3B PAH1 domain and NRSF/REST form a complex with 1:1.
^1H—^15N HSQC spectra were measured when N—CoR was added to 0.1 mM ^15N-labeled mSin3B PAH1 domain at a molar ratio of 1:0, 1:0.2, 1:0.4, 1:0.6, 1:0.8, 1:1, 1:2 or 1:3. The positions of signals shifted in a N—CoR concentration dependent manner.

Solubility of peptide = format: physicochemical; conditions: before adding KKKK to the C-terminus
[1] = biological target: T2, PAH1 domain of mSin3B (a.a. 28-107); assay: 1H-15N HSQC NMR, peptide added to 15N-labeled mSin3B PAH1 domain
Experimental: (§1) Interaction candidate regions of NRSF/REST (a.a. 43-83, 39-55, 38-57, 64-80 and 68-83) were individually added to an aqueous solution of ¹⁵N-labeled mSin3B PAH1 for measuring ¹H—¹⁵N HSQC to thereby determine a region necessary for the interaction. In order to examine binding ratios, NRSF/REST (a.a. 42-56) at varied concentrations was added to ¹⁵N-labeled mSin3B PAH1 domain in phosphate buffer (pH 6.6), followed by observation of signal changes by ¹H—¹⁵N HSQC. Since NRSF/REST (a.a. 42-56) is sparingly soluble, basic residues (KKKK) were added to its C-terminus to improve the solubility. Further, in order to carry out quantitative determination of concentrations with UV, a residue having an aromatic ring (W) was also added to the peptide. […] For all of the NMR measurement, Bruker Advance 700 was used.

[2] = biological target: T2, PAH1 domain of mSin3B (a.a. 28-107); assay: 1H-15N HSQC titration, 0.1 mM 15N-labeled mSin3B PAH1 at molar ratios 1:0 to 1:3
Experimental: as §1
¹H—¹⁵N HSQC spectra were measured when N—CoR was added to 0.1 mM ¹⁵N-labeled mSin3B PAH1 domain at a molar ratio of 1:0, 1:0.2, 1:0.4, 1:0.6, 1:0.8, 1:1, 1:2 or 1:3. The positions of signals shifted in a N—CoR concentration dependent manner. A rapid exchange process on the NMR timescale was shown.

Row | Molecule | Spectrum (1H-15N HSQC of 15N-mSin3B PAH1 after adding the peptide: complex or single peptide) (mSin3B PAH1 domain) | binding result [1] | other results
1 | KAELAAPQLIMLANVALTGE (listed as Homo sapiens) [NRSF/REST 38-57, synthetic peptide of NRSF/REST residues 38-57] | Complex | – | –
2 | AAPQLIMLANVALTGKKKKW [NRSF/REST 42-56] | – | – | solubility (Solubility of peptide): sparingly soluble
3 | N—CoR (a.a. 1829-1847): synthetic peptide of residues 1829-1847 of transcriptional co-repressor N—CoR (RYNTAADALAALVDAAASA; listed as Homo sapiens) | – | – | interaction with the PAH1 domain relative to NRSF/REST (mSin3B PAH1 domain; 1H-15N HSQC): interacts with the PAH1 domain, though more weakly than NRSF/REST; exchange process on the NMR timescale (mSin3B PAH1 domain; titration into 0.1 mM 15N-labeled mSin3B PAH1 domain, 1H-15N HSQC): rapid exchange process
4 | GEERQMAELMPVGDNN (Synthetic peptide, molecular weight 1790) [NRSF/REST (a.a. 68-83)] | – | no binding | –
5 | AAPQLIMLANVALTGKKKKW (Synthetic peptide, molecular weight 2182; also called NRSF/REST42-56) [NRSF/REST (a.a. 42-56) to which KKKK and W are added to its C-terminus] | – | binds | –
6 | RYNTAADALAALVDAAASA (Synthetic peptide, molecular weight 1835; also called co-repressor N-CoR) [N-CoR (a.a. 1829-1847)] | – | – | binding result [2]: binds
7 | APQLIMLANVALTGEVNGSCCDYLVGEERQMAELMPVGDNN (Recombinant, made as a GST fusion (pGEX-2T, BamHI-EcoRI) and GST was cut off with thrombin; Stated molecular weight 4511; also called NRSF/REST43-83) [NRSF/REST (a.a. 43-83)] | – | binds | –
8 | AELAAPQLIMLANVALT (Synthetic peptide, molecular weight 1739; also called NRSF/REST39-55) [NRSF/REST (a.a. 39-55)] | – | binds | –
9 | DYLVGEERQMAELMPVG (Synthetic peptide, molecular weight 1937) [NRSF/REST (a.a. 64-80)] | – | no binding | –

More lines, main results first:

Row | Spectrum (1H-15N HSQC of 15N-mSin3B PAH1 after adding the peptide: complex or single peptide) (mSin3B PAH1 domain) | binding result [1] | Molecule | other results
10 | Complex | – | AELAAPQLIMLANVALT (listed as Homo sapiens) [NRSF/REST 39-55, synthetic peptide of NRSF/REST residues 39-55] | –
11 | Single | – | DYLVGEERQMAELMPVG (listed as Homo sapiens) [NRSF/REST 64-80, synthetic peptide of NRSF/REST residues 64-80] | –
12 | Complex | – | APQLIMLANVALTGEVNGSCCDYLVGEERQMAELMPVGDNN (listed as Homo sapiens) [NRSF/REST 43-83, NRSF/REST residues 43-83, expressed as GST fusion in E. coli and cut with thrombin] | –
13 | Single | – | GEERQMAELMPVGDNN (listed as Homo sapiens) [NRSF/REST 68-83, synthetic peptide of NRSF/REST residues 68-83] | –
14 | – | binds | KAELAAPQLIMLANVALTGE (Synthetic peptide, molecular weight 2053; Used for NMR structure analysis of the complex; also called NRSF/REST38-57) [NRSF/REST (a.a. 38-57)] | –
